Assay results as given in EP4751739A1, “ANTIBODY-DRUG CONJUGATE TARGETING C-MET AND MEDICAL USE THEREOF” (Jiangsu Hengrui Pharmaceuticals Co., Ltd., priority 2023, dated 2025).

Biological target: human c-Met on tumor cell lines (human) (UniProt P08581)
Assay: cell-based or functional assay

Chain of human c-Met on tumor cell lines (human) (P08581 25-1390): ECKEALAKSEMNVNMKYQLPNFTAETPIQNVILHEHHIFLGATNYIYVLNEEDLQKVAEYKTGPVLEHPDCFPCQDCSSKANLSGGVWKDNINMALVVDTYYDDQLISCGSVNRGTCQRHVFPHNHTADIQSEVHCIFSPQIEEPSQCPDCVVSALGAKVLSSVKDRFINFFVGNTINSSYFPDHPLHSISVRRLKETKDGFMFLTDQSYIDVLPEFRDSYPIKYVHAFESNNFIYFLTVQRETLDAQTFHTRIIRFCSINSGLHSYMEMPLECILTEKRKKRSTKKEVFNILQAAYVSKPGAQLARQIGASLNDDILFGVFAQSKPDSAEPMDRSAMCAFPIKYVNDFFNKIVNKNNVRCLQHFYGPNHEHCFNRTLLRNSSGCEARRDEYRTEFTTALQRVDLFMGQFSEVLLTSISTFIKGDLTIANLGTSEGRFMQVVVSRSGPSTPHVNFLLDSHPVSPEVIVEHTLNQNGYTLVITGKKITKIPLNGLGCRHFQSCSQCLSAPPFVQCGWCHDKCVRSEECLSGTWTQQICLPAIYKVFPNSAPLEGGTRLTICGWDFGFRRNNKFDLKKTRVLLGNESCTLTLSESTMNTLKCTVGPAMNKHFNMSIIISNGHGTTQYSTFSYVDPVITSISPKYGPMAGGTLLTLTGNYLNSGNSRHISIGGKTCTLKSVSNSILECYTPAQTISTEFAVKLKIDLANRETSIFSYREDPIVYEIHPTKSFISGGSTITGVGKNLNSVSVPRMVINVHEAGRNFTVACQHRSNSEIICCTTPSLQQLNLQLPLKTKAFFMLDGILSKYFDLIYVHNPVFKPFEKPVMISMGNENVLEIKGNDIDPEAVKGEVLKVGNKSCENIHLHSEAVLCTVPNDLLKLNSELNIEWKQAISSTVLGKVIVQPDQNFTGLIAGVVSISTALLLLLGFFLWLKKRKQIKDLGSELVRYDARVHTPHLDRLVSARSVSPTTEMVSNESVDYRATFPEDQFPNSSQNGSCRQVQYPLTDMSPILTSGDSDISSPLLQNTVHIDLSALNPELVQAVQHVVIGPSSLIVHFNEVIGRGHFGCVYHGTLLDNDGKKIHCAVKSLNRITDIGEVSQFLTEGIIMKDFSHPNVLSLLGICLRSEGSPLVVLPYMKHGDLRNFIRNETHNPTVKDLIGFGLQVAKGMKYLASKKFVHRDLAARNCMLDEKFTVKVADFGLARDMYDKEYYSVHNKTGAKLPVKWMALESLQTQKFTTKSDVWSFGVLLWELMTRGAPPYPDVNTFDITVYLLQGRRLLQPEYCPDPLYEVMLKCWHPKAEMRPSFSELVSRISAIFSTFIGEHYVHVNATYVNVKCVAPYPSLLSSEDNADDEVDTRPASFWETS

Endocytosis ratio% at 0 h, EBC-1 cells, 20 nM, flow cytometry [%] | Endocytosis ratio% at 0.5 h, EBC-1 cells, 20 nM, flow cytometry [%] | Endocytosis ratio% at 2 h, EBC-1 cells, 20 nM, flow cytometry [%] | Endocytosis ratio% at 4 h, EBC-1 cells, 20 nM, flow cytometry [%] | Endocytosis ratio% at 24 h, EBC-1 cells, 20 nM, flow cytometry [%] | Substance
0 | 5.54 | 29.3 | 54.2 | 97.8 | ABT-700 (antibody)
0 | 4.36 | 31.7 | 58 | 97.3 | Teli-VcMMAE (antibody)
